Among the data in PMC7933254 are ratio to parent values, retold here.

In the experiment the target is RhoA (blot label: Myc (RhoA); legend: RhoA-GFP). Description: co-immunoprecipitation (IP: Myc (RhoA)) with densitometry. The conditions noted are these: MN-1 cells, mean ± SEM, parent: est. 1.0, read off a plot.

On to “TRPV4-FLAG (wild type), expressed in MN-1 cells (from UniProt Q9HBA0) R237L”, for which the ratio to parent (R237L TRPV4-FLAG alone, no TRPV4-GFP co-expressed (lane 4), n = 5) amounted to 0.05 and the ratio to parent (R237L TRPV4-FLAG co-expressed with WT TRPV4-GFP (lane 5), n = 4) stood at 0.04.
